IntAct's records for PubMed 19805289

B1: ATP-dependent RNA helicase DBP5 (Saccharomyces cerevisiae), P20449 (parent)
chain: MSDTKRDPADLLASLKIDNEKEDTSEVSTKETVKSQPEKTADSIKPAEKLVPKVEEKKTKQEDSNLISSEYEVKVKLADIQADPNSPLYSAKSFDELGLAPELLKGIYAMKFQKPSKIQERALPLLLHNPPRNMIAQSQSGTGKTAAFSLTMLTRVNPEDASPQAICLAPSRELARQTLEVVQEMGKFTKITSQLIVPDSFEKNKQINAQVIVGTPGTVLDLMRRKLMQLQKIKIFVLDEADNMLDQQGLGDQCIRVKRFLPKDTQLVLFSATFADAVRQYAKKIVPNANTLELQTNEVNVDAIKQLYMDCKNEADKFDVLTELYGLMTIGSSIIFVATKKTANVLYGKLKSEGHEVSILHGDLQTQERDRLIDDFREGRSKVLITTNVLARGIDIPTVSMVVNYDLPTLANGQADPATYIHRIGRTGRFGRKGVAISFVHDKNSFNILSAIQKYFGDIEMTRVPTDDWDEVEKIVKKVLKD
partner: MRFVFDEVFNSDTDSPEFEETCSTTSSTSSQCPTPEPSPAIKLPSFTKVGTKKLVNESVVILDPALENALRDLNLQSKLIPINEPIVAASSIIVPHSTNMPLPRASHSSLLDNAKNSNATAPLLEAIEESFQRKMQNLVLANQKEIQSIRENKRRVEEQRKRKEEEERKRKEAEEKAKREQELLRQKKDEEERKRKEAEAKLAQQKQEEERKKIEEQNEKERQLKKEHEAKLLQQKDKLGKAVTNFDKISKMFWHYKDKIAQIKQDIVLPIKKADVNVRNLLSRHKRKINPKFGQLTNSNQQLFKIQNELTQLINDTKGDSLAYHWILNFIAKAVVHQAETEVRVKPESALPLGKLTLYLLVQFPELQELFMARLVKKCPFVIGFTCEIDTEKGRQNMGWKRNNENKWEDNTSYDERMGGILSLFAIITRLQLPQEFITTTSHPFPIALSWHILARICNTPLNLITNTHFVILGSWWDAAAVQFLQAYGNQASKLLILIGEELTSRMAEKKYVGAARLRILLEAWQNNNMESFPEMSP

Variants of: B1
Conditions: with gle1_yeast GLE1, Q12315

| Variant | effect of a mutation on the interaction |
| --- | --- |
| T329A | decreasing interaction |
| E353K | decreasing interaction |
| E323K | disrupting interaction |
| K382E | disrupting interaction |

Further lines, results first:

| effect of a mutation on the interaction | Variant |
| --- | --- |
| disrupting interaction | E473K |
| decreasing interaction | E473A |

Variants of: B1
Conditions: with gle1_yeast GLE1, Q12315
Remark: another data set of the same source

| effect of a mutation on the interaction | Variant |
| --- | --- |
| decreasing interaction | E473K |
| decreasing interaction | E323K |
| decreasing interaction | K382E |
